Reference: US20040170614A1

Tests used:
Experiment in all cases: cell-based or functional assay
hmCD40ΔT6 (human; mouse) = hmCD40ΔT6 (human; mouse) (UniProt P25942)
[1] = target: human-mouse hybrid CD40 (hmCD40) (human; mouse) (UniProt P25942)
[2] = target: mouse CD40 (mCD40) (mouse) (UniProt P27512)
UniProt P27512, sequence (P27512 20-289): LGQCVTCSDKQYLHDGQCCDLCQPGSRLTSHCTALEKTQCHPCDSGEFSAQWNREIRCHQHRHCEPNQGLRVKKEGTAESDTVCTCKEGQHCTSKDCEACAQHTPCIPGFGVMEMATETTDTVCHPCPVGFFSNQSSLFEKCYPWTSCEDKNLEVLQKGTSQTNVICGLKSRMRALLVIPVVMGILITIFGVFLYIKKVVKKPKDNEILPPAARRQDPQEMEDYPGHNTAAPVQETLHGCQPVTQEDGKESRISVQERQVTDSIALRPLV

| IgM secretion (Pfc), CH12.LX+hmCD40ΔT6 cells (hmCD40ΔT6 (human; mouse)) | IgM secretion (Pfc), CH12.T2-/-+hmCD40ΔT6 cells (hmCD40ΔT6 (human; mouse)) | IgM secretion (Pfc), CH12.LX+hmCD40 cells [1] | IgM secretion (Pfc), CH12.T2-/-+hmCD40 cells [1] | IgM secretion (Pfc), CH12.LX+hmCD40 cells [2] | IgM secretion (Pfc), CH12.LX+hmCD40ΔT6 cells [2] | IgM secretion (Pfc), CH12.T2-/-+hmCD40 cells [2] | IgM secretion (Pfc), CH12.T2-/-+hmCD40ΔT6 cells [2] | Substance |
| --- | --- | --- | --- | --- | --- | --- | --- | --- |
| 187000 Pfc | 34000 Pfc | 430000 Pfc | 376000 Pfc |  |  |  |  | anti-hCD40 mAb G28-5 (antibody) |
|  |  |  |  | 431000 Pfc | 378000 Pfc | 399000 Pfc | 340000 Pfc | anti-mCD40 mAb 1C10 (antibody) |
